± gives the standard deviation of the averaged measurements.
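Further: ATP exposure 15 min at 22 °C before imaging.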

The data set concerns ATP. Nature of the data set: switch fluorescence ratio, 500 uM ATP over buffer (Cy3 cluster intensity, sum of 5 cycles each) (fold (ratio)); higher = stronger signal-on switching upon ATP binding; sequences stand for … in TCGTCGGCAGCGTCAGATGTGTATAAGAGACAGTTTTTTTTTTTTTTTTTTTTTTTTT…TC. The note with it: aptamer strand: ATP DNA aptamer (quencher-CACCTGGGGGAGTATTGCGGAGGAAGG + anchor), 100 nM annealed; ATP concentration: 500 uM. The method, boiled down: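 Clusters with intensities outside 100-1000 RFU were excluded. The remaining Cy3-labelled switching-strand clusters on a modified Illumina MiSeq flow-cell had been annealed to 100 nM quencher-labelled ATP aptamer and imaged in selection buffer, then after 15 min with 500 uM ATP at 22 °C, for five cycles separated by NaOH stripping and re-annealing. The fluorescence ratio, averaged per switch-domain sequence, is each cluster's summed target-cycle Cy3 intensity over its summed buffer-cycle Cy3 intensity.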
On to ACGATCTCCC, for which the switch fluorescence ratio turned out to be 1.31 ± 0.098.

Take TTGCTACTGT: the switch fluorescence ratio is 0.983 ± 0.018.

Turning to ATGTAATCAT, the switch fluorescence ratio is 1.01 ± 0.024.

As to GCAGACCATT, the switch fluorescence ratio was found to be 1.049 ± 0.0067.

For the sequence CTGGTGGGGT, the switch fluorescence ratio was found to be 1.02 ± 0.044.

In the case of ACTGGGGATG, the switch fluorescence ratio worked out at 0.963 ± 0.043.

With GTTTTTAGTG, the switch fluorescence ratio came to 0.983 ± 0.038.

With AAAGCGGGGG, the switch fluorescence ratio turned out to be 1.04 ± 0.016.

As to CTAATCATCT, the switch fluorescence ratio was determined as 1.01 ± 0.039.

As to TTCAGGGTCC, the switch fluorescence ratio was found to be 1.03 ± 0.035.

As for AGCGTTGGTG, the switch fluorescence ratio was 1.03 ± 0.031.

Consider ATTGTCTTCG, for which the switch fluorescence ratio came to 0.987 ± 0.041.

Turning to TGTGAGGGGG, the switch fluorescence ratio worked out at 1.01 ± 0.038.

With TTTTGGAGAA, the switch fluorescence ratio came out at 1.02 ± 0.037.

ATTTTTTCTG: the switch fluorescence ratio is 0.9907 ± 0.0059.

For TTACAGTTAA, the switch fluorescence ratio is 1.01 ± 0.021.

Take CGCTTGTTCG: the switch fluorescence ratio came to 1.01 ± 0.027.

In the case of TGGCTAAACG, the switch fluorescence ratio is 0.992 ± 0.019.

Regarding TTTAGGTAGA, the switch fluorescence ratio was determined as 1.02 ± 0.014.

Take AAGCCTAATG: the switch fluorescence ratio was 0.996 ± 0.017.

Regarding TTATATCAGA, the switch fluorescence ratio came out at 1.016 ± 0.0083.

TTTTGCGTTT: the switch fluorescence ratio stood at 0.992 ± 0.07.

ATAGCGAGGA: the switch fluorescence ratio amounted to 1.05 ± 0.034.

GGAATTGGGT: the switch fluorescence ratio came out at 0.99 ± 0.044.

In the case of CTTAGGGGTG, the switch fluorescence ratio is 0.973 ± 0.011.

With TTGCGTTTGA, the switch fluorescence ratio amounted to 1.008 ± 0.005.

Turning to TTGAGGCCCA, the switch fluorescence ratio was 1.17 ± 0.22.

For the sequence GGTATTATTT, the switch fluorescence ratio was found to be 0.995 ± 0.023.

Turning to AGGGAGTTAT, the switch fluorescence ratio was determined as 1 ± 0.0014.

For GGGGGGGCCT, the switch fluorescence ratio came out at 0.999 ± 0.036.

As for GATTGAATTT, the switch fluorescence ratio is 0.989 ± 0.032.

For the sequence CTAAAACAGG, the switch fluorescence ratio came out at 1.02 ± 0.03.

Consider TAATGTAACG, for which the switch fluorescence ratio was found to be 1 ± 0.063.

GCTTAGAGGA: the switch fluorescence ratio came out at 1 ± 0.03.

For the sequence CCAGGCTGAG, the switch fluorescence ratio is 1.05 ± 0.022.

Regarding CAAAGATAGG, the switch fluorescence ratio was determined as 0.996 ± 0.018.

Regarding TGGGTTAGTG, the switch fluorescence ratio came out at 0.962 ± 0.017.

Consider ATTTCATGCG, for which the switch fluorescence ratio turned out to be 1.03 ± 0.023.

For GCGGTGAGGC, the switch fluorescence ratio is 0.9709 ± 0.0056.

For CAGCGGGGCC, the switch fluorescence ratio was 0.994 ± 0.011.

For the sequence CAGTTGAGAA, the switch fluorescence ratio stood at 1.02 ± 0.011.

As for AATTTACATG, the switch fluorescence ratio was determined as 1.02 ± 0.024.

For the sequence TTCGGAGAAT, the switch fluorescence ratio stood at 1.16 ± 0.23.

Take TATCAAATTG: the switch fluorescence ratio was determined as 1.02 ± 0.025.

Turning to AAGAAGAACA, the switch fluorescence ratio is 1.02 ± 0.02.

As to TACGGTTACT, the switch fluorescence ratio is 1.27 ± 0.014.

With CGATATAAGT, the switch fluorescence ratio is 1 ± 0.025.

TGCACGGCTT: the switch fluorescence ratio worked out at 1.13 ± 0.03.

Take AAGTTGGTTC: the switch fluorescence ratio is 0.98 ± 0.052.

As for CAAGAAATCT, the switch fluorescence ratio was 1.0078 ± 0.0005.

For TTTTGTTCGG, the switch fluorescence ratio is 0.99 ± 0.029.

Turning to GCTAGGAACT, the switch fluorescence ratio came to 0.979 ± 0.019.

Consider GTAGTATTAG, for which the switch fluorescence ratio amounted to 1.032 ± 0.0043.

TGTAAATGTG: the switch fluorescence ratio stood at 1 ± 0.028.

For the sequence CCGTTGGCCT, the switch fluorescence ratio came to 1.042 ± 0.0065.

Turning to CGGTTCGGAT, the switch fluorescence ratio worked out at 0.989 ± 0.017.

Consider TAGGAAATTA, for which the switch fluorescence ratio is 1 ± 0.015.

Consider AAATGCTACG, for which the switch fluorescence ratio was 1.01 ± 0.029.

TGGGAAAGGC: the switch fluorescence ratio was found to be 1.07 ± 0.061.

With AATAAGAGGG, the switch fluorescence ratio was determined as 1.01 ± 0.026.

In the case of TTGATTTCAG, the switch fluorescence ratio was 1.01 ± 0.013.

In the case of CCGGCACCTG, the switch fluorescence ratio was found to be 1.02 ± 0.025.

As for CCGGTTGTTG, the switch fluorescence ratio was 1.027 ± 0.0079.

Turning to CGCTCATTTG, the switch fluorescence ratio is 0.97 ± 0.016.

With GCGGCCCTGG, the switch fluorescence ratio turned out to be 1.008 ± 0.0064.

Consider GTGCTTAGGA, for which the switch fluorescence ratio amounted to 0.957 ± 0.029.
